Measured values from PMC2779222 (The Journal of Cell Biology, 2009).

B1: CEACAM1-4ΔCyto–YFP (domain or fragment, rat, UniProt P16573 35-448, looked up)
chain: QVTVDAVPPNVVEEKSVLLLAHNLPQEFQVFYWYKGTTLNPDSEIARYIRSDNMSKTGPAYSGRETIYSNGSLFFQNVNKTDERAYTLSVFDQQFNPIQTSVQFRVYPALQKPNVTGNNSNPMEGEPFVSLMCEPYTNNTSYLWSRNGESLSEGDRVTFSEGNRTLTLLNVRRTDKGYYECEARNPATFNRSDPFNLDVIYGPDAPVISPPDIYLHQGSNLNLSCHADSNPPAQYFWLINEKLQTSSQELFISNITTNNSGTYACFVNNTVTGLSRTTVKNITVFEPVTQPSIQITNTTVKELGSVTLTCFSKDTGVSVRWLFNSQSLQLTDRMTLSQDNSTLRIDPIKREDAGDYQCEISNPVSFRISHPIKLDVIPDPTQGNSGLSEGAIAGIVIGSVAGVALIAALAYFLY

Legend:
ΔN–CEACAM1-3L–YFP (rat) = ΔN–CEACAM1-3L–YFP (rat) (UniProt P16573); experiment: cross-linking
cross-linking = target: the molecule itself; experiment: cross-linking

| Molecule | stoichiometry N (ΔN–CEACAM1-3L–YFP (rat)) | stoichiometry N (cross-linking) |
| --- | --- | --- |
| ΔN–CEACAM1-3L–YFP (from UniProt P16573 35-519) (domain or fragment) | 2 |  |
| B1 |  | 2 |
